Data set [1] addresses T1, SARS-CoV-2 nucleocapsid NTD WT (SARS-CoV-2 (Wuhan-Hu-1), UniProt P0DTC9 44-180). The data set is described as follows: MST. The note with it: protein: recombinant; tags: His6-Trx cleaved by TEV; one extra N-terminal G; label: 3'-Cy5; transiently folds as stem-loop.
Data set [2] deals with SARS-CoV-2 nucleocapsid NTD WT (SARS-CoV-2 (Wuhan-Hu-1), UniProt P0DTC9 44-180). The data set is described as follows: MST. The note with it: protein: recombinant; tags: His6-Trx cleaved by TEV; one extra N-terminal G; label: 3'-Cy5; hairpin.
The target of data set [3] is T1, SARS-CoV-2 nucleocapsid NTD WT. The data set is described as follows: EMSA. The note with it: protein: recombinant; tags: His6-Trx cleaved by TEV; one extra N-terminal G; hairpin with 22 nt 3' extension.

Turning to GGAUAAUUAAUAACUAAUUACU (ssRNA) [Ext (3'-Cy5)], in data set [1], the dissociation constant (Kd) stood at 334 ± 47 nM.
Regarding GGGUGUGGCUGUCACUCGGCUGCAUGCUUAGUGCACUCACGCCC (structured_RNA) [SL4 (3'-Cy5)], the dissociation constant Kd in data set [2] is 14.1 ± 2.23 µM.

B1: SL4ext (structured_RNA)
RNA: GGUCUGUGUGGCUGUCACUCGGCUGCAUGCUUAGUGCACUCACGCAGUAUAAUUAAUAACUAAUUACUG
Take B1: the binding result in data set [3] was “binds”.

What is called Kd is the constant that tells how readily two partners part at equilibrium.
